Laboratory results as given in the supplement of paper PMC12764529.
± gives the half width of the 95% confidence interval.

Test: folding stability dG unfold from chymotrypsin proteolysis; higher = more stable
How it was run: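 Digests were run with trypsin and chymotrypsin at 11 concentrations in threefold dilutions, plus a no-protease condition, on designed mini-proteins in a PA-tagged cDNA display construct. The mini-proteins were under 80 residues, had no cysteine, and were kept only when AlphaFold2 dimer inter-PAE was above 15. After sequencing, Bayesian fitting of the counts gave K50, from which unfolding free energy was derived against a sequence-predicted unfolded-state K50 and a shared folded-state K50, per protease or combined.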

| Sequence | folding stability dG unfold [kcal/mol] |
| --- | --- |
| SAGGMVVVAVEVDPVTKTATIVYAAPVPNLGGYVPIPAAAVAKRLTEELGLPDVKEVTVAQAAGDVPISAGG [r13_327_TrMRF] | 0.607 ± 0.1 |
| KKIHIMFNNPQHVRRIAKKLGPNVKPDDVKKNPNGYYYFEIDLPNGRPIDIHIPSENMPAEDIVDYALEMLS [r1_279_TrROS] | 0.86 ± 0.089 |
| SAGGSAGGDKKGKPKPQWVTIMFKVPDDDLPPEEIAKEFPGVKIERSPGMYMITVPVNGKWIPFSAGGSAGG [r6_739_TrROS] | 1.25 ± 0.14 |
| SAGGMPVTTTPRTVELPDRRVEVIDRTFPNGPPRTTVVVRDPAGNLVATREFTGPEWEEWLRAEGALLSAGG [r19_90_JUSTAS] | 1.06 ± 0.035 |
| SGEIIGEQTFPVEDGGKVPVKIYKNPGNLYAEVFNDDDKPIQEQEIPPDDDLEDIENIKLPPGAWVRIYWSA [r9_215_TrROS] | 0.368 ± 0.39 |
| SAGGSAGGSASKDDKIVKVKVFTIKLKPNLEGLPKKVRELLEKLGIKEIKITFVSVFNPEDFSAGGSAGGSA [r18_127_TrMRF] | 4.34 ± 0.14 |
| SAGGSAGGSAGGSKIRLKINMTEEELKELLKKLFPNAKVTRIERKKDGSIYVEIELEPESAGGSAGGSAGGS [r4_95_TrROS_Hall] | 3.23 ± 0.082 |
| SAGGSAGGSAKMIIRIRNKNGKIIELTLEEVAKKLGLSKEEMTAEEILKKLKENIEKVEILPSAGGSAGGSA [r18_403_TrROS_Hall] | 3.18 ± 0.048 |
| SAGGSAGGSALDDFKIEEVQYDPDGNTIRFIFKFPGQVWILRIRMPKNGKMEIEWIPADDISAGGSAGGSAG [r3_167_TrROS] | 4.36 ± 0.23 |
| SAGGSAKEVKIKFTRNPDGTLTMEITFEDGYVIRKTFTVKNGKLTEKVEVFPVKLDPETGKLVLLPSAGGSA [r15_746_TrROS_Hall] | 2.98 ± 0.033 |
| SASLEPVATTAVPLPDGTTATLTLYRDPATGRYTVRVTVTHPDGAAETRVLEVDSEEEALSRVVLSPGASAG [r14_749_JUSTAS] | 3.421 ± 0.018 |
| SAGGSAGGEPETIEIKMTPEELEELARELEKEGYTIEVEVVEEKVVGPDGKEREVVVRVRVEKRSAGGSAGG [r6_857_TrROS_Hall] | 1.32 ± 0.04 |
| SAGGSAKITIHMAPDGMFQIEIKTGGKERTYHVDMPLEQIKDELEDEGLEIKDIEITPFPPDPEDFSAGGSA [r15_576_TrROS] | -0.146 ± 0.095 |
| SAGGSAGGSMKVYKLPGGYTVTVEPVDGGTLVTITLPDGSVKTKFVPPDEPVVVDPNGAKITVSAGGSAGGS [r12_281_JUSTAS] | 2.55 ± 0.036 |
| SAGGMILKITIPKEDEEKAKELADELAKKLEEETGKPIKVKVKVEKNENGELTIVIEVDGKKIEIKLSAGGS [r16_356_TrROS_Hall] | 0.444 ± 0.078 |
| SERLKLKITIKNANGETYEVEIEFDLETNELTIKVKPVPALPPVTEKRVVKKDGKLVEETRTVLLSEEDLSA [r9_587_TrROS_Hall] | 1.83 ± 0.1 |

| Sequence | folding stability dG unfold [kcal/mol] |
| --- | --- |
| SAGGSAGGSAGGPLKVEVIGSIEGDDRVYVLTRVPGVGGLFVAEYEKPSGKILSVSPVPLSAGGSAGGSAGG [r7_154_TrMRF] | 1.3 ± 0.15 |
| SAGGPPNGMVPIKVPIKIRFPNGHEFKIDEAYVMPNGMVMIEMTHTDPDDKKEKFPFMIPPDNLEIVSAGGS [r16_498_TrROS] | 1.59 ± 0.096 |
| SAGGSAGGSGSFSLSFPDADGVSVTLDPNTGIVTMSFNRPDANYTITLERYPDSIVVKEIKLPSAGGSAGGS [r20_60_JUSTAS] | 1.48 ± 0.1 |
| SAGGSAKKTYIIKIPVKEIVVKDKKTGKYKPISAEELAKLLEEKTGLKVEIVEVKDGYIVIKVKEKSAGGSA [r15_55_TrROS_Hall] | 2.96 ± 0.045 |
| SAGGSALTLNDKSLIPKPFPKKKAIVDVAVPLPPNLTLEEALEVAEAIANNLLKAGKIDEATVAIYSAGGSA [r15_450_TrMRF] | 0.151 ± 0.15 |
| SMPPEDPGELTLVVPDTRNVTVTLPVPVPPEARVLVTFSDGRRVEAPAGTELTFTIPPGRPYVIRVEVYASA [r9_79_TrMRF] | 1.86 ± 0.085 |
| SAGGSAGGSAKKPTAEEILKKLKLPEGAKIVKIEVEYDKKTKKVTIKIEIKVNGKTYTFEIKSAGGSAGGSA [r18_354_TrROS_Hall] | 4.39 ± 0.11 |
| SAGGSAKVIAVPSLEEALKLAEEAAKEGKDIVVLFPDNRLLVVEVKPAPDDKPVLKLKVFEIPPELSAGGSA [r15_761_TrMRF] | 0.974 ± 0.072 |
| SAGGSAGGSAGMEITRDKTPDGVWTVTITVPRPDGPSITVTVTGSPDGDFAPEKIAAVLASAGGSAGGSAGG [r11_759_JUSTAS] | 0.078 ± 0.19 |
| SAGGSIEEVIEELIKSGKPPSKEEIKEAIKKAIEEEVKKKGKKIPKVNIKKITSNPETGKIPIEIIISAGGS [r16_365_JUSTAS] | 0.784 ± 0.056 |
| SAGGMTSTLTVTLTVSPSTSPEEAAERAAEALEAAHPDRTVVIESITVTPATGKVVATIKVVGDTGASAGGS [r8_26_JUSTAS] | 1.18 ± 0.029 |
| SAGGSAGGSAGGAMTVETVELPSGEVVTLEYDPASGRVLTTVETPDSVERTEDPLEPPAASAGGSAGGSAGG [r7_63_JUSTAS] | -0.403 ± 0.11 |
| SAGGSAGGSAMIVKEFVTYDPSTGTRTRTTVTLELYDSPEGGAVVVLEEEVDPVGPLPPLESAGGSAGGSAG [r3_397_JUSTAS] | 0.000665 ± 0.17 |
| SAGSMVLTEDKEFEVDYVLPDGTRLTEPVKVKVKTTTVFLKNNSSLVLTFTTVTLTDPKGNKVTFSGSVSAG [r5_257_JUSTAS] | 2.969 ± 0.018 |
| SAGGSAGGSASKTIFIPAAVVAANPEKAVEFAEKVREEFEKKGLSVKTEVLPDGGIGIHVGSAGGSAGGSAG [r3_75_TrMRF] | 1.61 ± 0.054 |
